Assay results reported in patent US9926377B2, “Anti-GPC3 antibodies and immunoconjugates” (GENENTECH, INC., priority 2014, dated 2018).

Assays:
GPC3 [1] = target: T1, GPC3 (Homo sapiens, UniProt P51654); assay: FACS binding to human GPC3 fragments expressed on 293S cells; set-up: C-terminal glycophosphatidylinositol anchor (GPI link) (C); expressed in transfected cells; host or cells: 293S cells, transient; details: N-terminal fragment, amino acids 25 to 358 of human GPC3, on 293S cells
Source text: (§1) C-terminal truncation constructs of human GPC3 were made to further refine the epitopes for antibodies 7H1 and 4G7. […] The three C-terminal truncations each comprised the GPC N-terminal signal sequence (SS) and C-terminal glycophosphatidylinositol anchor (GPI link). […] See FIG. 7 (Santa Cruz Biotechnology antibody 1G12, which was raised to amino acids 511-580 of human GPC3, was used as a positive control for C-terminal fragment binding). Antibody 7H1 was reformatted as a chimeric antibody with human A118C cysteine-engineered IgG1 and Igκ constant regions (SEQ ID NOs: 42 and 43).
Target sequence in this assay (P51654 25-358): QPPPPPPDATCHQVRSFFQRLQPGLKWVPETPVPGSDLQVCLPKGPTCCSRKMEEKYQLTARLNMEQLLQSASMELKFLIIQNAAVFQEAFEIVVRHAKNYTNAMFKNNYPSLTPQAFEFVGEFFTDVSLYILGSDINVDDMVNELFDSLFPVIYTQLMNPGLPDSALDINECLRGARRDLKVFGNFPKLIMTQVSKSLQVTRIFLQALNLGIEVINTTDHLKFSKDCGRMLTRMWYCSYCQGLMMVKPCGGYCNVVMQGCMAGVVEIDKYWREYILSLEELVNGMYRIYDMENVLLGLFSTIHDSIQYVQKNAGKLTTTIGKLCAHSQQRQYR

human GPC3 = target: T2, human GPC3 (Homo sapiens, UniProt P51654); assay: as above; details: C-terminal fragment, amino acids 359-560 of human GPC3, on 293S cells
T2 construct: C-terminal glycophosphatidylinositol anchor (GPI link) (C); expressed in transfected cells; host or cells: 293S cells, transient
T2 sequence (P51654 359-560): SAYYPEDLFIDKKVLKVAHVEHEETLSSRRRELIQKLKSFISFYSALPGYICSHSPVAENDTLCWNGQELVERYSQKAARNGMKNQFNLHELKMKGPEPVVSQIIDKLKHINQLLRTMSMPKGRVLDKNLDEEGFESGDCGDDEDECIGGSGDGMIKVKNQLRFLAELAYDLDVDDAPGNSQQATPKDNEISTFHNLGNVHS
Source text: as §1

GPC3 [2] = target: T1, GPC3; assay: Binding to GPC3-expressing cells by FACS; set-up: endogenous in cells
Source text: Positive clones were expanded and re-screened for binding to huGPC3, cynoGPC3, and HepG2 cells by ELISA, FACS, and immunohistochemistry (IHC). Thirteen antibodies were selected and purified, including antibodies 7H1 and 4G7. The heavy and light chain variable region sequences of antibody 7H1 are shown in SEQ ID NOs: 2 and 3, respectively. The heavy and light chain variable region sequences of antibody 4G7 are shown in SEQ ID NOs: 26 and 27, respectively.
Antibody 7H1 also detects human, cynomolgus monkey, rat, and mouse GPC3 by Western blot.
Target sequence in this assay (P51654 25-554): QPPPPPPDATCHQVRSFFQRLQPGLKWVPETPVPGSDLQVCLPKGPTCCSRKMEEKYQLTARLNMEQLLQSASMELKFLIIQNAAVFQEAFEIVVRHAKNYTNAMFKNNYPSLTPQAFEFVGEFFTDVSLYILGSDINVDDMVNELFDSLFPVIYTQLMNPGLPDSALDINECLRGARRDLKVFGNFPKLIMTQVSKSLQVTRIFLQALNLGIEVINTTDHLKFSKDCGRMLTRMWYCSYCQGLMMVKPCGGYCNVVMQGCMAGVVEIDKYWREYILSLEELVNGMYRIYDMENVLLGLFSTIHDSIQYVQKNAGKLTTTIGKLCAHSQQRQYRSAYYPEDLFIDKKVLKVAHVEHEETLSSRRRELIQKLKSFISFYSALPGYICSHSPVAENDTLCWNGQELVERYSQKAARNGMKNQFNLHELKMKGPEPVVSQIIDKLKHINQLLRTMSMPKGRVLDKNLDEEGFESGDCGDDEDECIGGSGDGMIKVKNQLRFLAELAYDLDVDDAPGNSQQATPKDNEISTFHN

biotinylated GPC3 = biotinylated GPC3 (Homo sapiens, UniProt P51654); assay: Epitope binning competition assay (Octet RED384); assay type: binding; details: 7H1 or 4G7 as first saturating antibody 10 μg/ml; competing antibodies 5 μg/ml
Method: Epitope binning of anti-GPC3 antibodies was performed using a competition assay. Using the Octet RED384 instrument (ForteBio), biotinylated GPC3 was captured onto Streptavidin biosensors at 10 μg/ml for 600 seconds. Binding of the first antibody to saturation was achieved by adding 10 μg/ml for 600 seconds. The same biosensors were dipped into the competing antibodies at 5 μg/ml and binding was measured for 600 seconds. […] Antibody 7H1 was used as the first saturating antibody. A subsequent experiment was performed using antibody 4G7 as the first saturating antibody.

Sequence of biotinylated GPC3 (P51654 25-554): as above

Binding by FACS (GPC3 [1]): did not show significant binding
Binding by FACS (human GPC3): did not show significant binding
Reactivity by FACS (GPC3 [2]; 293S cells expressing GPC3): react strongly
Reactivity by FACS (GPC3 [2]; HepG2 X1 cells): react strongly
Epitope bin (biotinylated GPC3): different epitope bins
B1: 4G7: anti-GPC3 monoclonal antibody; heavy and light chain variable regions SEQ ID NOs: 26 and 27 (antibody, V domains shown)
VH: EVQLQQSGTVLARPGASVKMSCKASGYTFTSYWVHWVKQRPGQGLEWIGAIYPGNIDASYNQKFKGKAKLTAVTSTSTAYMELSSLTNEDSAVYYCSYDYDAWFVYWGQGTLVTVSA
VL: DIQMTQSHKFMSTSVGDRVSITCKASQDVSTAVAWYQQKPGQSPTLLIYSASYRYTGVPDRFTGSGSGTDFTFTISSVQAEDLAVYYCQQHYFTPRTFGGGTKLELK
